Blank lines part the entries; values can stand above or below the binder they belong to. Where no end group is shown, it is not given here. The star is where a group is joined. Dansyl = CN(C)c1cccc2c(S(=O)(=O)*)cccc12
Key:
[1] = target: Caco-2 cell membrane (P100) fractions; assay: ELISA on coated Caco-2 P100 fraction, anti-dansyl detection; assay 4, peptide at 25 µg/ml
[2] = target: Caco-2 cell membrane (P100) fractions; assay: ELISA on coated Caco-2 P100 fraction, anti-dansyl detection; assay 5, peptide at 25 µg/ml
[3] = target: Caco-2 cell membrane (P100) fractions; assay: ELISA on coated Caco-2 P100 fraction, anti-dansyl detection; assay 6, peptide at 25 µg/ml
[4] = target: Caco-2 cell membrane (P100) fractions; assay: ELISA on coated Caco-2 P100 fraction, anti-dansyl detection; assay 7, peptide at 25 µg/ml
[5] = target: Caco-2 cell membrane (P100) fractions; assay: ELISA on coated Caco-2 P100 fraction, anti-dansyl detection; assay 1, peptide at 20 µg/ml
[6] = target: Caco-2 cell membrane (P100) fractions; assay: ELISA on coated Caco-2 P100 fraction, anti-dansyl detection; assay 2, peptide at 50 µg/ml
[7] = target: Caco-2 cell membrane (P100) fractions; assay: ELISA on coated Caco-2 P100 fraction, anti-dansyl detection; assay 3, peptide at 50 µg/ml
[8] = target: Caco-2 cell membrane (P100) fractions; assay: ELISA on coated Caco-2 P100 fraction, anti-dansyl detection; assay 8, peptide at 25 µg/ml

- binding to P100 relative to ZElan021 (arbitrary value 1.00) [1]: 2.02
- binding to P100 relative to ZElan021 (arbitrary value 1.00) [2]: 1.37
- binding to P100 relative to ZElan021 (arbitrary value 1.00) [3]: 1.2
- binding to P100 relative to ZElan021 (arbitrary value 1.00) [4]: 0.85
B1: ZElan091, HAX42 14 mer fragment (peptide)
peptide: K(Dansyl)PGDYNCCGNGNSTG
modifications: cysteine pairing not given here

- binding to P100 relative to ZElan021 (arbitrary value 1.00) [5]: 1
- binding to P100 relative to ZElan021 (arbitrary value 1.00) [6]: 1
- binding to P100 relative to ZElan021 (arbitrary value 1.00) [7]: 1
- binding to P100 relative to ZElan021 (arbitrary value 1.00) [1]: 1
- binding to P100 relative to ZElan021 (arbitrary value 1.00) [2]: 1
- binding to P100 relative to ZElan021 (arbitrary value 1.00) [3]: 1
- binding to P100 relative to ZElan021 (arbitrary value 1.00) [4]: 1.14
- binding to P100 relative to ZElan021 (arbitrary value 1.00) [8]: 0.94
B2: ZElan021, full length HAX42 (peptide)
peptide: K(Dansyl)SDHALGTNLRSDNAKEPGDYNCCGNGNSTGRKVFNRRRPSAIPT
modifications: cysteine pairing not given here

Reference: patent publication US20090238886A1
